Numbering of substitutions follows the chain as printed. Names and notes keep the numbering of the source. Values joined by “and” are separate entries in the source; they are usually repeats but may differ in a detail not shown here. Identical values can stand only once.
Experiments:
[1] = target: T1, mammalian cell (CHO) derived human IL-17 (human, UniProt Q16552 24-155); experiment: cell-based or functional assay
T1 sequence (looked up): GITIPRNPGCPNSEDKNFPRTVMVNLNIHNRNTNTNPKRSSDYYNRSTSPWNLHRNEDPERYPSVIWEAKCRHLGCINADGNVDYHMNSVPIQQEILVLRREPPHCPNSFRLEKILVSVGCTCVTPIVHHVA

[2] = target: T2, recombinant human IL-17 (R & D systems) (human, UniProt Q16552 20-155, limits assumed); experiment: cell-based or functional assay
T2 sequence (looked up): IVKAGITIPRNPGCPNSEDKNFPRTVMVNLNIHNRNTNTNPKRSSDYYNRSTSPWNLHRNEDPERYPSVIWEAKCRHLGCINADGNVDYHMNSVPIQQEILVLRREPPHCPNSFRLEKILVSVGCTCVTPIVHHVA

[3] = target: T2, recombinant human IL-17 (R & D systems); experiment: BIAcore 3000, antibody captured by anti-human IgG Fc, IL-17 as analyte
Protocol: (§1) BIA (Biamolecular Interaction Analysis) was performed using a BIAcore 3000 (BIAcore AB). Affinipure F(ab′)₂ Fragment goat anti-human IgG, Fc (Jackson ImmunoResearch) was immobilised on a CM5 Sensor Chip via amine coupling chemistry to a capture level of ≈8000 response units (RUs). HBS-EP buffer (10 mM HEPES pH 7.4, 0.15 M NaCl, 3 mM EDTA, 0.005% Surfactant P20, BIAcore AB) was used as the running buffer with a flow rate of 10 μL/min. A 10 μL injection of CA028_{—}497.g2 was used for capture by the immobilised anti-human IgG-F(ab)₂. IL-17 was titrated over the captured CA028_{—}497.g2 at various concentrations at a flow rate of 30 μL/min. The surface was regenerated by a 30 μL injection of 40 mM HCl, followed by a 10 μL injection of 5 mM NaOH.
(§2) Background subtraction binding curves were analysed using the BIAevaluation software (version 3.2) following standard procedures. Kinetic parameters were determined from the fitting algorithm.
(§3) The concentrations of IL-17 from different non-human primate (NHP) species expressed transiently were estimated relative to human IL-17 and these concentrations were then used to determine the affinities of the IL-17s. The affinity was measured at IL-17 concentrations at or below 25 nM. […] The concentration of transient cynomolgus IL-17 and transient marmoset IL-17 was estimated based on equivalent human IL-17 binding.

[4] = target: T3, marmoset IL-17 (expressed transiently) (marmoset, UniProt A0ACM8QD00 24-153); experiment: as above
T3 construct: also called marmoset 06073130c; transient marmoset IL-17
T3 sequence: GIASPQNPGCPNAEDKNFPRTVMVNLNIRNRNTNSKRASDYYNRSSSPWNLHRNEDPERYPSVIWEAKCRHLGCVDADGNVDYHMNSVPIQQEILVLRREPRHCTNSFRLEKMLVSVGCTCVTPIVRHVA
Protocol: as §1, §2, §3

[5] = target: T4, cynomolgus monkey IL-17 (expressed transiently) (cynomolgus monkey, UniProt A0A2K5TTB0 24-155); experiment: as above
T4 construct: also called transient cynomolgus IL-17
T4 sequence: T1 sequence (looked up) with T3A, P8S, N34S, I77V, N78K, P104R
Protocol: as §1, §2, §3

[6] = target: T4, cynomolgus monkey IL-17 (expressed …); experiment: BIAcore 3000, antibody captured by anti-human IgG Fc, IL-17 as analyte; analyte concentration estimated; transient cynomolgus IL-17, concentration estimated
Protocol: as §1, §2, §3

[7] = target: T3, marmoset IL-17 (expressed transiently); experiment: BIAcore 3000, antibody captured by anti-human IgG Fc, IL-17 as analyte; analyte concentration estimated
Protocol: as §1, §2, §3

[8] = target: T4, cynomolgus monkey IL-17 (expressed …); experiment: as above
Protocol: as §1, §2, §3

B1: antibody CA028-497.g2 (antibody, human IgG4 S228P, kappa, V domains shown)
VH: EVQLVESGGGLVKPGGSLRLSCAASGVIFSDYYMAWVRQAPGKGLEWVASINFNADISYYRESVKGRFTISRDDSKNTLYLQMNSLKTEDTAVYYCTTDANRQNYDWFAYWGQGTLVTVSS
VL: AIQLTQSPSSLSASVGDRVTITCKASESVSSSMYSYMHWYQQKPGKAPKLLIYRASNLESGVPSRFSGSGSGTDFTLTISSLQPEDFATYYCQQSWTAPRTFGQGTKVEIKR
notes: Humanised IgG4 (S241P) kappa antibody made in CHO cells; also called CA048-497.g2; CA048 497.g2
[1]
  IC50, inhibition of IL-17 induced IL-6 production in Hela cells: 103 ng/mL and 0.7 nM
[2]
  IC50, inhibition of IL-17 induced IL-6 production in Hela cells: 51 ng/mL and 0.34 nM
[3]
  Kd: 6.28 pM and 6.3 pM
  koff: 7.38e-06 s⁻¹
  kon: 1.86e+06 M⁻¹ s⁻¹
[4]
  koff: 1.46e-05 s⁻¹
[5]
  koff: 1.68e-05 s⁻¹
[6]
  kon: 1.57e+06 M⁻¹ s⁻¹
[7]
  Kd: 12.9 pM
  kon: 1.13e+06 M⁻¹ s⁻¹
[8]
  Kd: 10.7 pM
